Measured values reported in doi:10.1101/2021.08.31.458345.

Key:
[1] = target: gp41 subunit of ADA.CM.v4 Env (CTD truncated by 102 amino acids) (HIV-1 (subtype B isolate ADA)); assay: cryo-EM structure
[2] = target: immature Gag polyprotein (pr55 Gag precursor) (HIV-1); assay: cryo-EM structure

| Substance | stoichiometry N [1] | stoichiometry N [2] |
| --- | --- | --- |
| gp41 subunit of ADA.CM.v4 Env (CTD truncated by 102 amino acids) (domain or fragment) | 3 |  |
| immature Gag polyprotein (pr55 Gag precursor) (natural protein) |  | 6 |
